This is an account of results in patent US20070184522A1, “Cell death modulation via antagonists of Fasl and Fas activation” (University of Pittsburgh of the Commonwealth System of …, priority 2004, published 2007).

For one test, the target named is T1, Fas-Fc (Mus musculus, UniProt P25446).
T1 construct: purchased R&D
T1 sequence (P25446 22-169 limits assumed): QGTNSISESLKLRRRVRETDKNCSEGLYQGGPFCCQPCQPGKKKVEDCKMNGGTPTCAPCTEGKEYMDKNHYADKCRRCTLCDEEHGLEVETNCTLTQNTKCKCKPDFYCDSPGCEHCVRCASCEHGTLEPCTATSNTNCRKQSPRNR
The test can be described thus: ELISA of Fas-Fc binding to coated synthetic polypeptides. The following applies: peptides coated at 1 μg/ml, increasing Fas-Fc, OD 450 nm. An excerpt: The Met alpha but not beta chain binds to Fas (FIG. 1a). Various regions of the mouse Met cDNA corresponding to the alpha chain or the extra-cellular portion of the Met beta chain were cloned into expression vectors (pCRT7 TOPO/AlphaMet or pCRT7 TOPO/beta chain) and subjected to in vitro transcription/translation by a rabbit reticolucyte lysate translation system. Empty vector was included in each experiment as a control. The expressed proteins were labeled with ^35S-Methionine. Pull down assays were performed using Fas-Fc, a chimeric molecule which lacks the interacellular cytoplasmic domain and protein-A agarose as described in Wang et al., 2002. FIG. 1b is a schematic presentation of the Met alpha chain and its mutant version used to map the region interacting with Fas. The C-terminus of each construct contains a hexa-Histidine tag for ease of detection. Start cordon ATG was added to the N-terminally truncated constructs. The YLGA (SEQ ID NO:1) motif mutation was prepared by PCR, in which YLGA (SEQ ID NO:1) was replaced by DHER (SEQ ID NO:24). […] In vitro translated ^35S-methionine labeled truncated/mutated AlphaMet proteins were pulled down with 2 μg of Fas-Fc or the same amount of IgG. Lane 1: 10% of AlphaMet input; Lane 2: AlphaMet with IgG control; Lanes 3 to 8: pull down of various truncated AlphaMet proteins; N-terminal 1-106 residues; C-terminal truncated, residues 1-210; alpha chain, residues 1-306; alpha chain with transmembrane domain, 1-338; N-terminally truncated alpha chain, residues 100-306; and N-terminally truncated with addition of the transmembrane domain 100-338, respectively. FIG. 1d depicts the amino acid sequence alignment of alpha chain with FasL, determined using the CLUSTALW, SIM+LALNVIEW, and ALIGN at ExPASy Proteomic Tools (available on the internet at us.expresly.org/tools). The numbers indicate the amino acid residues of the indicated protein. […] Recombinant His-tagged AlphaMet or its mutant version were expressed in E. coli, purified with chromatography, and subjected to Fas-Fc (lanes labeled Fas) or control IgG pull down experiments, and detected by Western blot using anti-His antibody that recognizes C-terminal His. This antibody also recognizes the Fas-Fc which is also tagged at the C-terminus by His. […] Purified recombinant AlphaMet protein (approximately 10 μg) was mixed with Hepa 1-6 cells or Jurkat cell lysates and subjected to immunoprecicitation using anti-Fas antibody or control IgG followed by Western blot using anti His-tag antibody as a probe. […] Peptides (1 μg/ml) were coated into the 96-well microtiter plates in triplicate and after blocking with 1% BSA, increasing amounts of Fas-Fc were added as indicated. The control peptide was a scrambled 13 mer. After washing the wells, anti-human […]-HRP conjugates (1:20,000) were added to detect the bound Fas-Fc using TMD dye and the OD value was determined at a wavelength of 450 nm. One-way ANOVA was carried out for determination of statistical significance.
ELISA. Synthesized polypeptides (Genemed Synthesis, Inc. South San Francisco, Calif.) were dissolved in water and diluted in the coating buffer (0.05M of Sodium Carbonate, 0.02% of Sodium Azide, pH 9.6) to a final concentration of 1 ug/ml. One hundred microliter aliquots were added to coat each well of a 96-well microtitre plate. The coated plates were then washed with PBS-Tween (0.5%) three times. The plates were blotted and dried by tapping upside down on tissue paper. They were blocked using 200 μl of 1% of BSA in PBS solution followed by a 2 hour incubation. Plates were washed another three times, Fas-Fc was added, and the plates were incubated for another 2 hours. The plates were washed three times and anti-human IgM Fc HRP conjugates were included at a final concentration of 1:20,000, and incubated for 1 hour. Plates were washed three times again and ready-to-use TMD was added and incubated for 30 minutes. The color reaction was stopped by 2M of Sulfuric Acid. […]

The target in test [1] is T2, Fas-Fc / Fas ligand binding (Mus musculus, UniProt P25446).
T2 construct: purchased R&D
T2 sequence (P25446 22-169 limits assumed): T1 sequence (P25446 22-169 limits assumed)
The test can be described thus: Competition ELISA: coated Fas ligand, Fas-Fc added with increasing amounts of polypeptide. As to conditions: Fas ligand 1 μg/ml coated, Fas-Fc 1 μg/ml. On the procedure:
This antibody also recognizes Fas-Fc which is also tagged at the C-terminus by His. In FIG. 2b, a fixed amount of purified recombinant Fas-ligand was added to Fas-Fc in the absence or presence of increasing amounts of AlphaMet as indicated. Samples were subjected to pull down using proteinA agarose followed by Western blot using a polyclonal rabbit anti-FasL antibody. […] Fas ligand (1 μg/ml) was coated in the wells of a microtiter plate (triplicate wells) then 1 μg/ml of Fas-Fc was added in the absence or presence of an increasing amount of the indicated polypeptide. A 13 mer YLGA polypeptide derived from FasL also was synthesized and used. The control peptide was a scrambled 13 mer. Anti human IgM-HRP conjugates were used to detect the bound Fas-Fc. […] One-way ANOVA was carried out for determination of statistical significance. […] Cells (3×10^5) were plated in 24-well plates having Poly-L-Lysine pre-treated cover glass. 2 μg/ml of Fas ligand was added and the cells were incubated for 30 min on ice. Cells were then washed by PBS twice, and were subjected to immunostaining using anti-Fas ligand antibody and fluorescent microscopy. In Frame A, Fas ligand was not added, in B, only Fas ligand was added, in C-F, Fas ligand was added with different polypeptides as follows: AlphaMet, 12 mer YLGA, control peptide, and YLGA mutated AlphaMet, respectively.
ELISA. Synthesized polypeptides (Genemed Synthesis, Inc. South San Francisco, Calif.) were dissolved in water and diluted in the coating buffer (0.05M of Sodium Carbonate, 0.02% of Sodium Azide, pH 9.6) to a final concentration of 1 ug/ml. One hundred microliter aliquots were added to coat each well of a 96-well microtitre plate. The coated plates were then washed with PBS-Tween (0.5%) three times. The plates were blotted and dried by tapping upside down on tissue paper. They were blocked using 200 μl of 1% of BSA in PBS solution followed by a 2 hour incubation. Plates were washed another three times, Fas-Fc was added, and the plates were incubated for another 2 hours. The plates were washed three times and anti-human IgM Fc HRP conjugates were included at a final concentration of 1:20,000, and incubated for 1 hour. Plates were washed three times again and ready-to-use TMD was added and incubated for 30 minutes. The color reaction was stopped by 2M of Sulfuric Acid. Plates were applied to color read at a wave length of 450 nm.

Test [2] addresses CFP-tagged and YFP-tagged Fas expressed in Hepa 1-6 cells. In words: cell-based or functional assay.
The target of test [3] is T3, Fas-Fc (extracellular part of Fas) (Mus musculus, UniProt P25446).
T3 construct: purchased R&D
T3 sequence (P25446 22-169 limits assumed): T1 sequence (P25446 22-169 limits assumed)
The test can be described thus: Fas-Fc pull down assay with protein-A agarose. As to conditions: in vitro translated 35S-labeled proteins, autoradiography. It is filed as binding. From the text: The Met alpha but not beta chain binds to Fas (FIG. 1a). Various regions of the mouse Met cDNA corresponding to the alpha chain or the extra-cellular portion of the Met beta chain were cloned into expression vectors (pCRT7 TOPO/AlphaMet or pCRT7 TOPO/beta chain) and subjected to in vitro transcription/translation by a rabbit reticolucyte lysate translation system. Empty vector was included in each experiment as a control. The expressed proteins were labeled with ^35S-Methionine. Pull down assays were performed using Fas-Fc, a chimeric molecule which lacks the interacellular cytoplasmic domain and protein-A agarose as described in Wang et al., 2002. FIG. 1b is a schematic presentation of the Met alpha chain and its mutant version used to map the region interacting with Fas. The C-terminus of each construct contains a hexa-Histidine tag for ease of detection. Start cordon ATG was added to the N-terminally truncated constructs. The YLGA (SEQ ID NO:1) motif mutation was prepared by PCR, in which YLGA (SEQ ID NO:1) was replaced by DHER (SEQ ID NO:24). […] In vitro translated ^35S-methionine labeled truncated/mutated AlphaMet proteins were pulled down with 2 μg of Fas-Fc or the same amount of IgG. Lane 1: 10% of AlphaMet input; Lane 2: AlphaMet with IgG control; Lanes 3 to 8: pull down of various truncated AlphaMet proteins; N-terminal 1-106 residues; C-terminal truncated, residues 1-210; alpha chain, residues 1-306; alpha chain with transmembrane domain, 1-338; N-terminally truncated alpha chain, residues 100-306; and N-terminally truncated with addition of the transmembrane domain 100-338, respectively. FIG. 1d depicts the amino acid sequence alignment of alpha chain with FasL, determined using the CLUSTALW, SIM+LALNVIEW, and ALIGN at ExPASy Proteomic Tools (available on the internet at us.expresly.org/tools). The numbers indicate the amino acid residues of the indicated protein. […] Recombinant His-tagged AlphaMet or its mutant version were expressed in E. coli, purified with chromatography, and subjected to Fas-Fc (lanes labeled Fas) or control IgG pull down experiments, and detected by Western blot using anti-His antibody that recognizes C-terminal His. This antibody also recognizes the Fas-Fc which is also tagged at the C-terminus by His. […] Purified recombinant AlphaMet protein (approximately 10 μg) was mixed with Hepa 1-6 cells or Jurkat cell lysates and subjected to immunoprecicitation using anti-Fas antibody or control IgG followed by Western blot using anti His-tag antibody as a probe. […] After washing the wells, anti-human […]-HRP conjugates (1:20,000) were added to detect the bound Fas-Fc using TMD dye and the OD value was determined at a wavelength of 450 nm. […]

As to AHSSYLGAVFNLT [YLGA-13 mer], the “Fas binding by ELISA” value with Fas-Fc is reported as “bound Fas strongly”. Besides, the “inhibition of FasL binding to Fas-Fc (ELISA)” value (shortened to “inhibition of FasL binding”) in test [1] was “significantly inhibited FasL binding”.

In test [2], Jo2, monoclonal anti-Fas antibody yielded a percent of fluorescent cells showing Fas capping of 30%.

As for FLGA [FLGA tetramer], the “Fas binding by ELISA” value with Fas-Fc is given as “identical binding activity to that of the YLGA tetramer”.

On to YRGA, for which the “Fas binding by ELISA” value with Fas-Fc is “completely lost their Fas binding capacity”.

In the case of “FTAETPIQNVVLHGHHIYLGATNYIYVLNDKDLQKV [36 mer]”, the “Fas binding by ELISA” value with Fas-Fc is “bound Fas strongly”. The “inhibition of FasL binding” value in test [1] is reported as “significantly inhibited FasL binding”.

In the case of FLGAV, the “Fas binding by ELISA” value with Fas-Fc is “very active in binding to Fas”. In test [1], the “inhibition of FasL binding” value is given as “inhibiting FasL binding to Fas”.

For YLRA, in the test with Fas-Fc, the “Fas binding by ELISA” value was “completely lost their Fas binding capacity”.

As to “TGHIYLGAVNRIY [13-mer derived from PlexinA4]”, in the test with Fas-Fc, the “Fas binding by ELISA” value is “strong Fas-binding activity”. Also, the “inhibition of FasL binding” value in test [1] was “significantly inhibited FasL binding”.

With RLGA, in the test with Fas-Fc, the “Fas binding by ELISA” value is recorded as “completely lost their Fas binding capacity”.

For HHIFLGATNYIY, the “Fas binding by ELISA” value in the test with Fas-Fc is “strong Fas-binding activity”. For the same molecule, in test [1], the “inhibition of FasL binding” value was “significantly inhibited FasL binding”.

B1: Met beta chain: extracellular region of Met beta chain (amino acids 308 to 968, with transmembrane portion) (protein)
chain: TREEVFNILQAAYVSKPGANLAKQIGASPSDDILFGVFAQSKPDSAEPVNRSAVCAFPIKYVNDFFNKIVNKNNVRCLQHFYGPNHEHCFNRTLLRNSSGCEARSDEYRTEFTTALQRVDLFMGRLNQVLLTSISTFIKGDLTIANLGTSEGRFMQVVLSRTAHLTPHVNFLLDSHPVSPEVIVEHPSNQNGYTLVVTGKKITKIPLNGLGCGHFQSCSQCLSAPYFIQCGWCHNQCVRFDECPSGTWTQEICLPAVYKVFPTSAPLEGGTVLTICGWDFGFRKNNKFDLRKTKVLLGNESCTLTLSESTTNTLKCTVGPAMSEHFNVSVIISNSRETTQYSAFSYVDPVITSISPRYGPQAGGTLLTLTGKYLNSGNSRHISIGGKTCTLKSVSDSILECYTPAQTTSDEFPVKLKIDLANRETSSFSYREDPVVYEIHPTKSFISGGSTITGIGKTLNSVSLPKLVIDVHEVGVNYTVACQHRSNSEIICCTTPSLKQLGLQLPLKTKAFFLLDGILSKHFDLTYVHNPVFEPFEKPVMISMGNENVVEIKGNNIDPEAVKGEVLKVGNQSCESLHWHSGAVLCTVPSDLLKLNSELNIEWKQAVSSTVLGKVIVQPDQNFAGLIIGAVSISVVVLLLSGLFLWMRKRKHKDLGSELVR
In the case of B1, the “Fas binding in Fas-Fc pull down” value in test [3] is given as “not the Met beta chain region bound specifically”.
